Assay results published in article PMC5515880 (Scientific Reports, 2017).

Key:
[1] = target: T1, GST-N protein (MHV N protein as a GST fusion construct) (mouse hepatitis virus (MHV-A59), UniProt P03416 1-454); experiment: pull-down; conditions: one partner purified
T1 sequence: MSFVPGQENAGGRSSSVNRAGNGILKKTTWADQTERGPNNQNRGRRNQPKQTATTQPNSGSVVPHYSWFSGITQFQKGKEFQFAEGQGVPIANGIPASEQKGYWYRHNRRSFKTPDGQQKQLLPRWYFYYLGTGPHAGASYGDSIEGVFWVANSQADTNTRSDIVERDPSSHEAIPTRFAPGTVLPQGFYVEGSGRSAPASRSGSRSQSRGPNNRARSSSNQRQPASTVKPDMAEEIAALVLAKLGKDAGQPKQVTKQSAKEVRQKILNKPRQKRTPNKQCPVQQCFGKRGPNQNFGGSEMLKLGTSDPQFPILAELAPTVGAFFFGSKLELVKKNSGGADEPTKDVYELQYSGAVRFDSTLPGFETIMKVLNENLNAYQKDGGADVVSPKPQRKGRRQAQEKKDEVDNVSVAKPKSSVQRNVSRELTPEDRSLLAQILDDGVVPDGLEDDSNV

[2] = target: T2, 6xHis-tagged N2b-N3 truncation of MHV N protein (mouse hepatitis virus (MHV-A59), UniProt P03416 258-454); experiment: pull-down; conditions: one partner purified
T2 sequence: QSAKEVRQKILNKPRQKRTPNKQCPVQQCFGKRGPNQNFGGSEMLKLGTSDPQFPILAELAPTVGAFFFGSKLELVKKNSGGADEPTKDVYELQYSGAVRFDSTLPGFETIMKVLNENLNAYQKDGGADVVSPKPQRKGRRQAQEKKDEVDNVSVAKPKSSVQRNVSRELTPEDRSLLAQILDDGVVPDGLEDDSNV

Binder | binding result [1] | binding result [2]
6xHis-tagged full length MHV N protein (natural protein) MSFVPGQENAGGRSSSVNRAGNGILKKTTWADQTERGPNNQNRGRRNQPKQTATTQPNSGSVVPHYSWFSGITQFQKGKEFQFAEGQGVPIANGIPASEQKGYWYRHNRRSFKTPDGQQKQLLPRWYFYYLGTGPHAGASYGDSIEGVFWVANSQADTNTRSDIVERDPSSHEAIPTRFAPGTVLPQGFYVEGSGRSAPASRSGSRSQSRGPNNRARSSSNQRQPASTVKPDMAEEIAALVLAKLGKDAGQPKQVTKQSAKEVRQKILNKPRQKRTPNKQCPVQQCFGKRGPNQNFGGSEMLKLGTSDPQFPILAELAPTVGAFFFGSKLELVKKNSGGADEPTKDVYELQYSGAVRFDSTLPGFETIMKVLNENLNAYQKDGGADVVSPKPQRKGRRQAQEKKDEVDNVSVAKPKSSVQRNVSRELTPEDRSLLAQILDDGVVPDGLEDDSNV | binds | 
GST-N1 (MHV N protein truncation) (domain or fragment) MSFVPGQENAGGRSSSVNRAGNGILKKTTWADQTERGPNNQNRGRRNQPKQTATTQPNSGSVVPHYSWFSGITQFQKGKEFQFAEGQGVPIANGIPASEQKGYWYRHNRRSFKTPDGQQKQLLPRWYFYYLGTGPHAGASYGDSIEGVFWVANSQADTNTRSDIVERDPSSHEAIPTRFAPGTVLPQGFYVEGS |  | binds
